The source of these data is the Immune Epitope Database (IEDB).

The target in one experiment is HLA-A*11:01. In words: IEDB peptide-MHC binding, purified MHC/direct/fluorescence; filed as Kd, often an IC50 or EC50 that approximates it; ≥ and ≤ were set here for values at or beyond the usual limits of such assays.
Another experiment addresses HLA-A*01:01. Described as above.
In experiment [1] the target is HLA-B*07:02. Described as above.
A further experiment addresses HLA-B*08:01. The description is as above.
For experiment [2], the target named is HLA-A*03:01. The description is as above.
For experiment [3], the target named is HLA-A*30:01. Described as above.
A further experiment concerns the target HLA-B*40:01. The experiment is described as above.
The target in the next experiment is HLA-B*27:05. The experiment is described as above.
For experiment [4], the target named is HLA-A*02:01. Described as above.
Another experiment has as its target HLA-B*58:01. Described as above.
Experiment [5] concerns the target HLA-A*24:03. Described as above.
For experiment [6], the target named is HLA-A*26:01. The description is as above.
Experiment [7] concerns the target HLA-A*69:01. Described as above.
Experiment [8] concerns the target HLA-B*15:01. The description is as above.
The target of another experiment is HLA-A*31:01. Described as above.
In experiment [9] the target is HLA-B*15:17. Described as above.
The next experiment has as its target HLA-B*35:01. The experiment is described as above. As to conditions: source organism: Cryptosporidium parvum.
For the next experiment, the target named is HLA-C*15:02. The description is as above. The settings on record: source organism: Cryptosporidium parvum.
The next experiment addresses HLA-B*44:02. The description is as above.
For experiment [10], the target named is HLA-B*57:01. Described as above.
The target of another experiment is HLA-A*23:01. In words: IEDB peptide-MHC binding, purified MHC/competitive/fluorescence; filed as Kd, often an IC50 or EC50 that approximates it; ≥ and ≤ were set here for values at or beyond the usual limits of such assays.
The target of experiment [11] is HLA-B*07:02. Described as above. The settings on record: source organism: Orthomarburgvirus marburgense.
Experiment [12] has as its target HLA-A*30:01. Described as above. The settings on record: source organism: Orthomarburgvirus marburgense.
A further experiment addresses HLA-A*26:02. The description is as above. As to conditions: source organism: Orthomarburgvirus marburgense.
In experiment [13] the target is HLA-B*15:01. Described as above. As to conditions: source organism: Orthomarburgvirus marburgense.
The target of experiment [14] is HLA-B*18:01. Nature of the experiment: IEDB peptide-MHC binding, purified MHC/direct/fluorescence; filed as Kd, often an IC50 or EC50 that approximates it; ≥ and ≤ were set here for values at or beyond the usual limits of such assays. As to conditions: source organism: Marburg virus - Musoke, Kenya, 1980.
For a further experiment, the target named is HLA-A*68:02. Nature of the experiment: IEDB peptide-MHC binding, purified MHC/competitive/fluorescence; filed as Kd, often an IC50 or EC50 that approximates it; ≥ and ≤ were set here for values at or beyond the usual limits of such assays. The settings on record: source organism: Streptococcus pneumoniae TIGR4.
In a further experiment the target is HLA-A*29:02. Described as above. The settings on record: source organism: Streptococcus pneumoniae TIGR4.
In experiment [15] the target is HLA-A*03:01. Described as above. The settings on record: source organism: Streptococcus pneumoniae TIGR4.
Experiment [16] addresses HLA-B*15:17. The experiment is described as above. As to conditions: source organism: Streptococcus pneumoniae TIGR4.
Experiment [17] concerns the target HLA-B*18:01. The experiment is described as above. As to conditions: source organism: Streptococcus pneumoniae TIGR4.
In the next experiment the target is HLA-B*27:03. Described as above. The settings on record: source organism: Streptococcus pneumoniae TIGR4.
Experiment [18] deals with HLA-B*57:01. Described as above. As to conditions: source organism: Streptococcus pneumoniae TIGR4.
In experiment [19] the target is HLA-A*02:01. Described as above. As to conditions: source organism: Streptococcus pneumoniae TIGR4.
For another experiment, the target named is HLA-B*51:01. The experiment is described as above. The settings on record: source organism: Streptococcus pneumoniae TIGR4.
Experiment [20] has as its target HLA-A*24:03. The experiment is described as above. The settings on record: source organism: Streptococcus pneumoniae TIGR4.
The target in experiment [21] is HLA-A*26:01. The description is as above. As to conditions: source organism: Streptococcus pneumoniae TIGR4.
Experiment [22] addresses HLA-A*69:01. Described as above. The settings on record: source organism: Streptococcus pneumoniae TIGR4.
Another experiment has as its target HLA-B*46:01. Described as above. The settings on record: source organism: Streptococcus pneumoniae TIGR4.
[23] abbreviates: source organism: Collimonas fungivorans.
[24] abbreviates: source organism: Cryptosporidium parvum.
[25] abbreviates: source organism: Marburg virus - Musoke, Kenya, 1980.
Where [26] appears, read: source organism: Vibrio vulnificus.

Some results are limits rather than exact numbers.

The Kd is the concentration at which binding is half-saturated. Lower therefore signals a tighter complex.

For AYSPFAFKK, the Kd with HLA-A*11:01 (setting [23]) was 0.168 µM; with HLA-A*01:01 (setting [23]), at least 20 µM; in the experiment with HLA-B*07:02 [1] (setting [23]), at least 20 µM; with HLA-B*08:01 (setting [23]), at least 20 µM; in the experiment with HLA-A*03:01 [2] (setting [23]), 2.28 µM; with HLA-A*30:01 [3] (setting [23]) it was 0.00979 µM. Besides, the Kd with HLA-B*40:01 (setting [23]) was at least 20 µM; with HLA-B*27:05 (setting [23]) it was at least 20 µM; with HLA-A*02:01 [4] (setting [23]) it was at least 20 µM; with HLA-B*58:01 (setting [23]), at least 20 µM; with HLA-A*24:03 [5] (setting [23]), 2.4 µM; with HLA-A*26:01 [6] (setting [23]) it was at least 20 µM. The Kd with HLA-A*69:01 [7] (setting [23]) and with HLA-B*15:01 [8] (setting [23]) was at least 20 µM throughout.

ISCQIYNAL: the Kd in the experiment with HLA-A*31:01 (setting [24]), with HLA-A*11:01 (setting [24]), with HLA-A*01:01 (setting [24]), with HLA-B*07:02 [1] (setting [24]), with HLA-B*08:01 (setting [24]) and with HLA-A*03:01 [2] (setting [24]) was at least 20 µM each time. In addition, the Kd with HLA-B*40:01 (setting [24]) is 0.192 µM; with HLA-B*15:17 [9] (setting [24]) it was 0.0826 µM; with HLA-B*35:01 it was 0.169 µM; with HLA-C*15:02, 0.385 µM; with HLA-B*44:02 (setting [24]), at least 20 µM; with HLA-B*57:01 [10] (setting [24]) it was at least 20 µM. The Kd is at least 20 µM in the experiment with HLA-B*27:05 (setting [24]); at least 20 µM with HLA-A*02:01 [4] (setting [24]); at least 20 µM with HLA-A*26:01 [6] (setting [24]); at least 20 µM with HLA-A*69:01 [7] (setting [24]); 0.27 µM in the experiment with HLA-B*15:01 [8] (setting [24]).

In the experiment with HLA-A*23:01 (source organism: Salmonella enterica subsp. enterica serovar Typhi), IWQWIHHEK displayed a Kd of 0.178 µM.

As for QGKQHLHSL, the Kd is at least 20 µM with HLA-B*07:02 [11]; at least 20 µM in the experiment with HLA-A*30:01 [12]; at least 20 µM with HLA-A*26:02; 4 µM with HLA-B*15:01 [13]; at least 20 µM with HLA-A*31:01 (setting [25]); at least 20 µM with HLA-A*11:01 (setting [25]). In addition, the Kd with HLA-A*01:01 (setting [25]) is at least 20 µM; in the experiment with HLA-B*08:01 (setting [25]), 0.212 µM; with HLA-B*15:17 [9] (setting [25]), at least 20 µM; in the experiment with HLA-B*18:01 [14], at least 20 µM; with HLA-B*57:01 [10] (setting [25]) it was at least 20 µM; with HLA-B*58:01 (setting [25]) it was at least 20 µM. Moreover, in the experiment with HLA-A*69:01 [7] (setting [25]), the Kd is at least 20 µM.

Consider QKDINTPGY, for which the Kd in the experiment with HLA-A*31:01 (setting [26]), with HLA-A*11:01 (setting [26]), with HLA-A*01:01 (setting [26]), with HLA-B*07:02 [1] (setting [26]), in the experiment with HLA-B*08:01 (setting [26]) and with HLA-A*03:01 [2] (setting [26]) was at least 20 µM each time. Besides, the Kd with HLA-A*30:01 [3] (setting [26]) was 9.37 µM; in the experiment with HLA-B*40:01 (setting [26]) it was at least 20 µM; with HLA-B*44:02 (setting [26]) it was at least 20 µM; with HLA-B*27:05 (setting [26]), at least 20 µM; with HLA-A*02:01 [4] (setting [26]), 15.5 µM; with HLA-B*58:01 (setting [26]), at least 20 µM. The Kd in the experiment with HLA-A*26:01 [6] (setting [26]) and in the experiment with HLA-A*69:01 [7] (setting [26]) was at least 20 µM in each case.

As to VPPTNSINK, the Kd with HLA-A*31:01 (setting [24]), with HLA-A*11:01 (setting [24]), with HLA-A*01:01 (setting [24]), with HLA-B*08:01 (setting [24]), in the experiment with HLA-A*03:01 [2] (setting [24]) and with HLA-B*40:01 (setting [24]) was at least 20 µM throughout. The Kd in the experiment with HLA-B*35:01 is 15 µM; in the experiment with HLA-B*44:02 (setting [24]), at least 20 µM; in the experiment with HLA-B*27:05 (setting [24]) it was at least 20 µM; in the experiment with HLA-A*02:01 [4] (setting [24]), at least 20 µM; with HLA-B*58:01 (setting [24]) it was at least 20 µM; with HLA-A*24:03 [5] (setting [24]), at least 20 µM. Further, the Kd in the experiment with HLA-A*26:01 [6] (setting [24]) was at least 20 µM; with HLA-A*69:01 [7] (setting [24]) it was at least 20 µM; with HLA-B*15:01 [8] (setting [24]) it was at least 10 µM.

On to YQVEGATRV, for which the Kd in the experiment with HLA-A*23:01 (source organism: Streptococcus pneumoniae TIGR4), with HLA-A*68:02, in the experiment with HLA-A*29:02, with HLA-A*03:01 [15], with HLA-B*15:17 [16] and in the experiment with HLA-B*18:01 [17] was at least 20 µM each time. Further, the Kd is at least 20 µM in the experiment with HLA-B*27:03; at least 20 µM with HLA-B*57:01 [18]; 0.0017 µM with HLA-A*02:01 [19]; at least 20 µM with HLA-B*51:01; at least 20 µM with HLA-A*24:03 [20]; at least 20 µM with HLA-A*26:01 [21]. The Kd with HLA-A*69:01 [22] and in the experiment with HLA-B*46:01 was at least 20 µM throughout.
